Assay results: patent publication US10087225B2, “Formulation of MK2 inhibitor peptides” (MOERAE MATRIX, INC., priority 2015, dated 2018)

Experiments:
Assay in all cases: Kinase Profiling Assay
Format in all cases: biochemical
Details in all cases: for % activity: 100 μM
FGFR3(h) = FGFR3(h) (Homo sapiens, UniProt P22607)
EphA5(h) = EphA5(h) (Homo sapiens, UniProt P54756)
EphA8(h) = target: T1, EphA8(h) (Homo sapiens, UniProt P29322)
T1 sequence (P29322 28-1005): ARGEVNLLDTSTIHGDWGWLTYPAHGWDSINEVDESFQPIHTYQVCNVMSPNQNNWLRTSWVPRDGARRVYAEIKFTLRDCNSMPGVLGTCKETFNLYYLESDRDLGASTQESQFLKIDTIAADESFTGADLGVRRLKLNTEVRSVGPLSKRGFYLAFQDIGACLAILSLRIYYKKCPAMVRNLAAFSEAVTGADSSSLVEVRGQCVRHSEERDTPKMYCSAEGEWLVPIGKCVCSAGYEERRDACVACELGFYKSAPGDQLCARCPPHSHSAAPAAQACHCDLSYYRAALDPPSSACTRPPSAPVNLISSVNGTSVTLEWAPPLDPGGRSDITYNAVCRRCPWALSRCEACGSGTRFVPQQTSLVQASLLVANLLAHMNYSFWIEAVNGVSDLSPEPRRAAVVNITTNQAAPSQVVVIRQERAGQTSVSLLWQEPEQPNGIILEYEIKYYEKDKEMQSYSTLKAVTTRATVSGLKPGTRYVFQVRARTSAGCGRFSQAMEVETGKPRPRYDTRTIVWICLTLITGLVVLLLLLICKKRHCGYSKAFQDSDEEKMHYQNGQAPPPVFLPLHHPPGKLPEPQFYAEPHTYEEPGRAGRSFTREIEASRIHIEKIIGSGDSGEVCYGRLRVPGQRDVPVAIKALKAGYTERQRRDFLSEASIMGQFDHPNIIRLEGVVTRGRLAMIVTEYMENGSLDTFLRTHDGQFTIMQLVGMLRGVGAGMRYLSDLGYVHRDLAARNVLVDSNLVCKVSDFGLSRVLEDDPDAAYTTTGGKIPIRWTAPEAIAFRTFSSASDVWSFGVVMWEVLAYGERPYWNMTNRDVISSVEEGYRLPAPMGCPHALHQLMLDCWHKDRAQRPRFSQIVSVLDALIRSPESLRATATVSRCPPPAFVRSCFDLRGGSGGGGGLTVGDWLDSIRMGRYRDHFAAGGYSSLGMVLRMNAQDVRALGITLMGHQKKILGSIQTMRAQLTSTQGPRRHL

CHK2(I157T)(h) = CHK2(I157T)(h) (Homo sapiens, UniProt O96017, I157T)
ZIPK(h) = ZIPK(h) (Homo sapiens, UniProt O43293)
MSSK1(h) = MSSK1(h) (Homo sapiens, UniProt Q9UPE1)
ULK2(h) = target: T2, ULK2(h) (Homo sapiens, UniProt Q8IYT8)
T2 sequence (Q8IYT8 1-1036): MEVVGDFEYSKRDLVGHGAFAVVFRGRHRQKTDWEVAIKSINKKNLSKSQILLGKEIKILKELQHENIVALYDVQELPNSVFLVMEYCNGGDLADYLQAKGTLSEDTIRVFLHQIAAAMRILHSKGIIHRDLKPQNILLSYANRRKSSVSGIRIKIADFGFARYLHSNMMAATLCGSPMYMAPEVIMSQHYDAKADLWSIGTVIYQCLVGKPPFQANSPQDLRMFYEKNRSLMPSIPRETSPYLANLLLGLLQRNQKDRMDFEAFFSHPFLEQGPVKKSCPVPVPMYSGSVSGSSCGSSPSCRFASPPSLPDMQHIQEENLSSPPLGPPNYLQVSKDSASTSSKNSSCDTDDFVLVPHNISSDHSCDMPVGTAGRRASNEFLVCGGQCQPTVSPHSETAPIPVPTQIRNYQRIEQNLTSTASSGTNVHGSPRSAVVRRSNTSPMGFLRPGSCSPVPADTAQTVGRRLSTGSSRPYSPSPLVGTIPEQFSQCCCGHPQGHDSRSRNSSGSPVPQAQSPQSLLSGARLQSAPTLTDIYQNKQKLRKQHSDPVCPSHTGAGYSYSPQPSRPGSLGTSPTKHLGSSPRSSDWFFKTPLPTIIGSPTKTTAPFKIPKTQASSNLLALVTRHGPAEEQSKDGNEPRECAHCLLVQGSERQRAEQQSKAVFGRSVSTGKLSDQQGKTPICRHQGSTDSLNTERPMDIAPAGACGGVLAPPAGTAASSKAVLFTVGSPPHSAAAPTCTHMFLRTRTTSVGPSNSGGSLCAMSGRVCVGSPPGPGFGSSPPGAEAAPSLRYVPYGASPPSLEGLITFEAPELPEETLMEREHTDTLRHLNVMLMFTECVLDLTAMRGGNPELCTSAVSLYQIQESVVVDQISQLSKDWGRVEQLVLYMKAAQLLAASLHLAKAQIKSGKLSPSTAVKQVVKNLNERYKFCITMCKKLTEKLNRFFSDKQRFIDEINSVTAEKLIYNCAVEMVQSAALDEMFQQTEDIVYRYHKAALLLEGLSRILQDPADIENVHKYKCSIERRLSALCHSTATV

Tec(h)activated = target: T3, Tec(h)activated (Homo sapiens, UniProt P42680)
T3 sequence (P42680 1-631): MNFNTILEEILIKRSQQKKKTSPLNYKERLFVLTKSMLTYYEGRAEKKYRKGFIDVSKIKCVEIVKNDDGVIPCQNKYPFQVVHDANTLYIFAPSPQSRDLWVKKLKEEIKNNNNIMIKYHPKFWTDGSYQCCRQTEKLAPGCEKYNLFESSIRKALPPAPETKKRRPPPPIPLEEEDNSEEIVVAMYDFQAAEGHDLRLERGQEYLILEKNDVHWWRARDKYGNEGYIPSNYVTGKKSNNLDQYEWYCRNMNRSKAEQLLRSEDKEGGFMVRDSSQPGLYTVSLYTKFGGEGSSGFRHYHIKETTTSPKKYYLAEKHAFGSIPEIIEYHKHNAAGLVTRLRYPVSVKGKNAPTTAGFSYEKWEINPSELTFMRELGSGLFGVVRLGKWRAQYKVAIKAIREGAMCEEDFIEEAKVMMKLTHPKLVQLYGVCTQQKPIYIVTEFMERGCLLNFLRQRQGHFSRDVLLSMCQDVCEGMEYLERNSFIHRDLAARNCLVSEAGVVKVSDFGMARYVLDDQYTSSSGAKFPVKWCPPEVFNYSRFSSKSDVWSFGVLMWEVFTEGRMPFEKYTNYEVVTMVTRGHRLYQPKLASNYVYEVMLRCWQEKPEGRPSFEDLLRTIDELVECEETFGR

Sequence of CHK2(I157T)(h) (O96017 whole entry I157T): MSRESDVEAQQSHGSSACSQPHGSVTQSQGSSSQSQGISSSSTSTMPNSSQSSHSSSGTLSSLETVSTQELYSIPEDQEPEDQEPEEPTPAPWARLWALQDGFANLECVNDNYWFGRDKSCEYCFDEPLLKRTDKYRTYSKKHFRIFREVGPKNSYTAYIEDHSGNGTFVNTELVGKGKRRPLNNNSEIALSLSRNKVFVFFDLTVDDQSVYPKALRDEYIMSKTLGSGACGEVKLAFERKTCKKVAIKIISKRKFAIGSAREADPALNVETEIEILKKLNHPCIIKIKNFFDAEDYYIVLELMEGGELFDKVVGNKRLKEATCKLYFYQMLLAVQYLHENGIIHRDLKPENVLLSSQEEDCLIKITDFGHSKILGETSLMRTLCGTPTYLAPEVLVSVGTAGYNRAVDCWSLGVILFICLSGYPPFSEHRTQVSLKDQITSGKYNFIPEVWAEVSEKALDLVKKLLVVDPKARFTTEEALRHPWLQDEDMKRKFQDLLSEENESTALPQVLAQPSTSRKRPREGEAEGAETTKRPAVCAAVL
Sequence of MSSK1(h) (Q9UPE1 whole entry): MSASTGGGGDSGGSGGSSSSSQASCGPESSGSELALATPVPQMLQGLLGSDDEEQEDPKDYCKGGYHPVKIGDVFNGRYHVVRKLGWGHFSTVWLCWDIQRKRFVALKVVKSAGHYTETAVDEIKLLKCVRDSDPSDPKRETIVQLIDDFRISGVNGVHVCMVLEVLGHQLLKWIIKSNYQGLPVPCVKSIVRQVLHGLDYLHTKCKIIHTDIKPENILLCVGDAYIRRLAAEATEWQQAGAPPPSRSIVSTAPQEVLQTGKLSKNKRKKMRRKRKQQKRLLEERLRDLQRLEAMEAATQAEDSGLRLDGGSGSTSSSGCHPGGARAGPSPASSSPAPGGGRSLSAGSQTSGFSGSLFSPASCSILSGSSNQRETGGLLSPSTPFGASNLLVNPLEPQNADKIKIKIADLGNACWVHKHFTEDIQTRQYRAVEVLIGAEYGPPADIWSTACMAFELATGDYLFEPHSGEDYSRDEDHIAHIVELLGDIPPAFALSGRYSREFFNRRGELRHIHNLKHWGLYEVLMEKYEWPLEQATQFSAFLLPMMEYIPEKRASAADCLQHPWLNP
Sequence of EphA5(h) (P54756 25-1037): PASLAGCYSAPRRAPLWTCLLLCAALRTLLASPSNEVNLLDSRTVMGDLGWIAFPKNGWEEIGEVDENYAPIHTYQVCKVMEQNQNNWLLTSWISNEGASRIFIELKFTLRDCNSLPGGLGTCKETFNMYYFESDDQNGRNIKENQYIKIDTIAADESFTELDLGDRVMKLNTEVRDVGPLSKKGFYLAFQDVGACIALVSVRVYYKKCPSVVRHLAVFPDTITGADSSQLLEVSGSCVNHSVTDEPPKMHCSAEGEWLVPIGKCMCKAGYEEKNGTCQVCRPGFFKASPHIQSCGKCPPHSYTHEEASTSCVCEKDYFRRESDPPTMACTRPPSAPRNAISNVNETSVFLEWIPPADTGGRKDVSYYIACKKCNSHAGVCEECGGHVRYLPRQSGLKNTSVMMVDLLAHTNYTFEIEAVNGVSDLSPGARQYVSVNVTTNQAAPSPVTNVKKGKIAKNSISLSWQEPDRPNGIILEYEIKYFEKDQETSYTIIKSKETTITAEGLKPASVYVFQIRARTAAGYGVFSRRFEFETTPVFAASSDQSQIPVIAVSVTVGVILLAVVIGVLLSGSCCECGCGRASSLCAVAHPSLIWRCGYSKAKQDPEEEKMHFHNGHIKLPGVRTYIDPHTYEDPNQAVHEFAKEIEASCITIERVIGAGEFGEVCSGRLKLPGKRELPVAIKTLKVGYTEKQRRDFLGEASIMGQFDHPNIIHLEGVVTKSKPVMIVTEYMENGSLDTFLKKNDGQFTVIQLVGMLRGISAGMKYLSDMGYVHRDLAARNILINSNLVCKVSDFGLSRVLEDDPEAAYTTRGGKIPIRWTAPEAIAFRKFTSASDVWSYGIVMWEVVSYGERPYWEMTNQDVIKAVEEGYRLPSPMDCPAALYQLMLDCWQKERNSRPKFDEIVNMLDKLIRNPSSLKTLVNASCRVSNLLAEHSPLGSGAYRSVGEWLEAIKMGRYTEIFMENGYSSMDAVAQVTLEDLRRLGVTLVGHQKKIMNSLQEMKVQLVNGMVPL
Sequence of ZIPK(h) (O43293 whole entry): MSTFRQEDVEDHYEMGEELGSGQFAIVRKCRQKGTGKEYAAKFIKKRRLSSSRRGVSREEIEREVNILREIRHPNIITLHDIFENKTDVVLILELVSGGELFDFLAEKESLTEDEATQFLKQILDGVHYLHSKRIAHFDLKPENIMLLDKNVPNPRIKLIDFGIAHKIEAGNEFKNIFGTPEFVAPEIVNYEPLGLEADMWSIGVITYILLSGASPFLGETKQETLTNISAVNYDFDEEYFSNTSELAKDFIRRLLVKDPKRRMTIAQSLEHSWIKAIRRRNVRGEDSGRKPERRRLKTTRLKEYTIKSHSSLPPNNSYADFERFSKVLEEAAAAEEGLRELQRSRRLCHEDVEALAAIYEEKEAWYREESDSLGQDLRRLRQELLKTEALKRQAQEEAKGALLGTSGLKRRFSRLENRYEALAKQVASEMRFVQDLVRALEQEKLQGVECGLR
Sequence of FGFR3(h) (P22607 23-806): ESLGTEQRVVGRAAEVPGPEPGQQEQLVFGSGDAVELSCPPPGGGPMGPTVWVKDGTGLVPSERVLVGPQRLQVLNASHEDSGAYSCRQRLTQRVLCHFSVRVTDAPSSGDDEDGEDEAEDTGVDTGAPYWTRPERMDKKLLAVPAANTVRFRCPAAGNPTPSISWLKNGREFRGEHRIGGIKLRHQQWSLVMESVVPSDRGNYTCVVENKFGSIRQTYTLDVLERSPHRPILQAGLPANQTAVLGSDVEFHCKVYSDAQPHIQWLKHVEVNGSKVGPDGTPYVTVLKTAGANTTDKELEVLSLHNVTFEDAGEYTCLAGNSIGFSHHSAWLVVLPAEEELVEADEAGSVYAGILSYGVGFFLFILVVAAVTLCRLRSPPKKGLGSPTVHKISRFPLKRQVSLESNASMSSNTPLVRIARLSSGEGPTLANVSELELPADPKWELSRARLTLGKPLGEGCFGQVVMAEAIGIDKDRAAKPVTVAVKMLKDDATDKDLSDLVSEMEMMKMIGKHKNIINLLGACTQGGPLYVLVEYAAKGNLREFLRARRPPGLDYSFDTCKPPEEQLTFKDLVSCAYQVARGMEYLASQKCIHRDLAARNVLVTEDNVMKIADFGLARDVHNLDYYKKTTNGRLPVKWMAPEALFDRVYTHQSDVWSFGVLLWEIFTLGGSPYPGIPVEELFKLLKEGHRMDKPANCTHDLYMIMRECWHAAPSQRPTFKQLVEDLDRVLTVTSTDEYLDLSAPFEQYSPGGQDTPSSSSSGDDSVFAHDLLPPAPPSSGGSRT

Row | Substance | activity at 100 µM (FGFR3(h)) [%] | activity at 100 µM (EphA5(h)) [%] | activity at 100 µM (EphA8(h)) [%] | activity at 100 µM (CHK2(I157T)(h)) [%] | activity at 100 µM (ZIPK(h)) [%] | activity at 100 µM (MSSK1(h)) [%] | activity at 100 µM (ULK2(h)) [%] | activity at 100 µM (Tec(h)activated) [%] | % activity (FGFR3(h)) [%] | % activity (EphA5(h)) [%] | % activity (EphA8(h)) [%] | % activity (CHK2(I157T)(h)) [%] | % activity (ZIPK(h)) [%] | % activity (MSSK1(h)) [%] | % activity (ULK2(h)) [%] | % activity (Tec(h)activated) [%]
1 | H-YARAAARQARAKALARQLGVAA-OH [MMI-0100] | 73 | 110 | 181 | 97 | 80 | 82 | 123 | 100 |  |  |  |  |  |  |  | 
2 | HRRIKAWLKKIKALARQLGVAA (Mammalian) [MMI-0500] |  |  |  |  |  |  |  |  | 10 | 42 | 337 | 3 | 1 | 22 | 124 | 33
3 | YARAAARQARAKALNRQLGVA (Mammalian) [MMI-0200] |  |  |  |  |  |  |  |  | 208 | 123 | 133 | 85 | 67 | 100 | 132 | 77
